± gives the uncertainty stated by the source.
Test: self-splicing fitness, log relative to wild type (ln ratio); higher = more splicing; Tetrahymena group I intron in knt gene, E. coli kanamycin selection, DiMSum; sequences stand for … in CUCUCU…GGAGGGAAAAGUUAUCAGGCAUGCACCUGGUAGCUAGUCUUUAAACCAAUAGAUUGCAUCGGUUUAAAAGGCAAGACCGUCAAAUUGCGGGAAAGGGGUCAACAGCCGUUCAGUACCAAGUCUCAGGGGAAACUUUGAGAUGGCCUUGCAAAGGGUAUGGUAAUAAGCUGACGGACAUGGUCCUAACCACGCAGCCAAGUCCUAAGUCAACAGAUCUUCUGUUGAUAUGGAUGCAGUUCACAGACUAAAUGUCGGUCGGGGAAGAUGUAUUCUUCUCAUAAGAUAUAGUCGGACCUCUCCUUAAUGGGAGCUAGCGGAUGAAGUGAUGCAACACUGGAGCCGCUGGGAACUAAUUUGUAUGCGAAAGUAUAUUGAUUAGUUUUGGAGUACUCGUGGUCG
Summary of the method: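 Pooled colonies went to amplicon sequencing on an Illumina HiSeq 2500 after six replicate transformations. The plates were LB agar with 100 μg/mL carbenicillin, 50 μM IPTG and 0.2% rhamnose, with or without 25 μg/mL kanamycin, incubated overnight at 37°C or 30°C. The E. coli BL21(DE3) library had all eight P1ex-region intron nucleotides randomised, the intron placed in the knt kanamycin-resistance gene on pET-22b(+). DiMSum fitness is the error-weighted combination of replicate fold changes, kanamycin against none, normalised to wild type.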

Sequence | self-splicing fitness (ln) (30 °C) | self-splicing fitness (ln) (37 °C)
UGUUAGCAAUAUUACGAAUA | -1.32 ± 0.14 | -0.0107 ± 0.14
UGUUAGCAAUAUUACGACCA | 0.586 ± 0.18 | -0.351 ± 0.24
UGUUAGCAAUAUUACGAGAC | -3.17 ± 0.37 | 
UGUUAGCAAUAUUACGAGAU |  | -2.58 ± 0.44
UGUUAGCAAUAUUACGAGCA | -0.725 ± 0.12 | -0.136 ± 0.17
UGUUAGCAAUAUUACGAGGU | -3.93 ± 0.28 | -2.8 ± 0.33
UGUUAGCAAUAUUACGCAAC | -2.82 ± 0.44 | 
UGUUAGCAAUAUUACGCAGC |  | -2.47 ± 0.38
UGUUAGCAAUAUUACGCCCA | 0.342 ± 0.28 | -0.34 ± 0.41
UGUUAGCAAUAUUACGCCUC |  | -0.642 ± 0.41
UGUUAGCAAUAUUACGCGAA | -0.983 ± 0.12 | -0.191 ± 0.1
UGUUAGCAAUAUUACGGCAG | 0.45 ± 0.1 | -1.03 ± 0.12
UGUUAGCAAUAUUACGGCUA | -1.01 ± 0.19 | 0.14 ± 0.19
UGUUAGCAAUAUUACGGCUG | 0.0825 ± 0.08 | 0.196 ± 0.12
UGUUAGCAAUAUUACGGGAC |  | -2.99 ± 0.48
UGUUAGCAAUAUUACGGUAC |  | -2.68 ± 0.48
UGUUAGCAAUAUUACGUCGU | -3.5 ± 0.33 | -2.69 ± 0.23
UGUUAGCAAUAUUACGUUAC | -1.97 ± 0.43 | 
UUAAAGCAAUAUUACGAAUU | -1.97 ± 0.11 | -2.46 ± 0.21
UUAAAGCAAUAUUACGAGUU | -2.82 ± 0.18 | -1.38 ± 0.16
UUAAAGCAAUAUUACGAUCG | 0.538 ± 0.098 | 0.338 ± 0.13

Sequence | self-splicing fitness (ln) (30 °C) | self-splicing fitness (ln) (37 °C)
UUAAAGCAAUAUUACGAUGC | -2.82 ± 0.11 | -2.2 ± 0.083
UUAAAGCAAUAUUACGCAGC |  | -2.68 ± 0.47
UUAAAGCAAUAUUACGCGAG | -0.116 ± 0.071 | 0.3 ± 0.085
UUAAAGCAAUAUUACGCGCC | -0.43 ± 0.15 | -0.00103 ± 0.24
UUAAAGCAAUAUUACGCGGC | -2.74 ± 0.29 | -1.03 ± 0.2
UUAAAGCAAUAUUACGCGUG | -0.256 ± 0.056 | -0.26 ± 0.068
UUAAAGCAAUAUUACGGACG | 0.179 ± 0.079 | 0.835 ± 0.14
UUAAAGCAAUAUUACGGCGG | 0.463 ± 0.11 | 0.0127 ± 0.13
UUAAAGCAAUAUUACGGGAG | -1.34 ± 0.08 | -0.293 ± 0.12
UUAAAGCAAUAUUACGUAGU | -3.87 ± 0.21 | -1.9 ± 0.18
UUAAAGCAAUAUUACGUGGA | -2.45 ± 0.072 | -0.864 ± 0.073
UUAAAGCAAUAUUACGUUAU | -2.14 ± 0.092 | -1.23 ± 0.11
UUAAAGCAAUAUUACGUUCC | -2.36 ± 0.22 | -0.947 ± 0.21
UUAAAGCAAUAUUACGUUGA | -0.721 ± 0.066 | -0.0751 ± 0.094
UUACAGCAAUAUUACGAAAU | -3.69 ± 0.34 | -2.59 ± 0.33
UUACAGCAAUAUUACGAACA | -0.742 ± 0.11 | -1.07 ± 0.12
UUACAGCAAUAUUACGACAG | -1.02 ± 0.068 | -0.222 ± 0.083
UUACAGCAAUAUUACGAGAC | -3.02 ± 0.27 | -2.18 ± 0.34
UUACAGCAAUAUUACGAGGG | -3.1 ± 0.25 | -1.62 ± 0.21
UUACAGCAAUAUUACGAGGU | -3.08 ± 0.22 | -2.72 ± 0.23
